From patent publication US20170355744A1 (published 2017)
Numbering of substitutions follows the chain as printed. Values joined by “and” are separate entries in the source; they are usually repeats but may differ in a detail not shown here. Identical values can stand only once.

B1: Naglu-(GGGGS)4GGGPS-IGF-II (SEQ ID NO: 568) (enzyme)
chain: DEAREAAAVRALVARLLGPGPAADFSVSVERALAAKPGLDTYSLGGGGAARVRVRGSTGVAAAAGLHRYLRDFCGCHVAWSGSQLRLPRPLPAVPGELTEATPNRYRYYQNVCTQSYSFVWWDWARWEREIDWMALNGINLALAWSGQEAIWQRVYLALGLTQAEINEFFTGPAFLAWGRMGNLHTWDGPLPPSWHIKQLYLQHRVLDQMRSFGMTPVLPAFAGHVPEAVTRVFPQVNVTKMGSWGHFNCSYSCSFLLAPEDPIFPIIGSLFLRELIKEFGTDHIYGADTFNEMQPPSSEPSYLAAATTAVYEAMTAVDTEAVWLLQGWLFQHQPQFWGPAQIRAVLGAVPRGRLLVLDLFAESQPVYTRTASFQGQPFIWCMLHNFGGNHGLFGALEAVNGGPEAARLFPNSTMVGTGMAPEGISQNEVVYSLMAELGWRKDPVPDLAAWVTSFAARRYGVSHPDAGAAWRLLLRSVYNCSGEACRGHNRSPLVRRPSLQMNTSIWYNRSDVFEAWRLLLTSAPSLATSPAFRYDLLDLTRQAVQELVSLYYEEARSAYLSKELASLLRAGGVLAYELLPALDEVLASDSRFLLGSWLEQARAAAVSEAEADFYEQNSRYQLTLWGPEGNILDYANKQLAGLVANYYTPRWRLFLEALVDSVAQGIPFQQHQFDKNVFQLEQAFVLSKQRYPSQPRGDTVDLAKKIFLKYYPRWVAGSWGGGGSGGGGSGGGGSGGGGSGGGPSLCGGELVDTLQFVCGDRGFYFSRPASRVSARSRGIVEECCFRSCDLALLETYCATPAKSE
notes: The construct encodes full-length Naglu 1-743 with its signal peptide; also called Naglu fusion protein; GILT-tagged Naglu-IGF-II fusion protein
B2: Naglu-Helical-IGF-II (SEQ ID NO: 567) (enzyme)
chain: DEAREAAAVRALVARLLGPGPAADFSVSVERALAAKPGLDTYSLGGGGAARVRVRGSTGVAAAAGLHRYLRDFCGCHVAWSGSQLRLPRPLPAVPGELTEATPNRYRYYQNVCTQSYSFVWWDWARWEREIDWMALNGINLALAWSGQEAIWQRVYLALGLTQAEINEFFTGPAFLAWGRMGNLHTWDGPLPPSWHIKQLYLQHRVLDQMRSFGMTPVLPAFAGHVPEAVTRVFPQVNVTKMGSWGHFNCSYSCSFLLAPEDPIFPIIGSLFLRELIKEFGTDHIYGADTFNEMQPPSSEPSYLAAATTAVYEAMTAVDTEAVWLLQGWLFQHQPQFWGPAQIRAVLGAVPRGRLLVLDLFAESQPVYTRTASFQGQPFIWCMLHNFGGNHGLFGALEAVNGGPEAARLFPNSTMVGTGMAPEGISQNEVVYSLMAELGWRKDPVPDLAAWVTSFAARRYGVSHPDAGAAWRLLLRSVYNCSGEACRGHNRSPLVRRPSLQMNTSIWYNRSDVFEAWRLLLTSAPSLATSPAFRYDLLDLTRQAVQELVSLYYEEARSAYLSKELASLLRAGGVLAYELLPALDEVLASDSRFLLGSWLEQARAAAVSEAEADFYEQNSRYQLTLWGPEGNILDYANKQLAGLVANYYTPRWRLFLEALVDSVAQGIPFQQHQFDKNVFQLEQAFVLSKQRYPSQPRGDTVDLAKKIFLKYYPRWVAGSWGAPGGGSPAEAAAKEAAAKEAAAKEAAAKEAAAKAPSGGGGAPLCGGELVDTLQFVCGDRGFYFSRPASRVSARSRGIVEECCFRSCDLALLETYCATPAKSE
notes: also called Naglu fusion protein
B3: Naglu-Rigid-IGF-II (SEQ ID NO: 566) (enzyme)
chain: DEAREAAAVRALVARLLGPGPAADFSVSVERALAAKPGLDTYSLGGGGAARVRVRGSTGVAAAAGLHRYLRDFCGCHVAWSGSQLRLPRPLPAVPGELTEATPNRYRYYQNVCTQSYSFVWWDWARWEREIDWMALNGINLALAWSGQEAIWQRVYLALGLTQAEINEFFTGPAFLAWGRMGNLHTWDGPLPPSWHIKQLYLQHRVLDQMRSFGMTPVLPAFAGHVPEAVTRVFPQVNVTKMGSWGHFNCSYSCSFLLAPEDPIFPIIGSLFLRELIKEFGTDHIYGADTFNEMQPPSSEPSYLAAATTAVYEAMTAVDTEAVWLLQGWLFQHQPQFWGPAQIRAVLGAVPRGRLLVLDLFAESQPVYTRTASFQGQPFIWCMLHNFGGNHGLFGALEAVNGGPEAARLFPNSTMVGTGMAPEGISQNEVVYSLMAELGWRKDPVPDLAAWVTSFAARRYGVSHPDAGAAWRLLLRSVYNCSGEACRGHNRSPLVRRPSLQMNTSIWYNRSDVFEAWRLLLTSAPSLATSPAFRYDLLDLTRQAVQELVSLYYEEARSAYLSKELASLLRAGGVLAYELLPALDEVLASDSRFLLGSWLEQARAAAVSEAEADFYEQNSRYQLTLWGPEGNILDYANKQLAGLVANYYTPRWRLFLEALVDSVAQGIPFQQHQFDKNVFQLEQAFVLSKQRYPSQPRGDTVDLAKKIFLKYYPRWVAGSWGAPGGGSPAPAPTPAPAPTPAPAGGGPSGAPLCGGELVDTLQFVCGDRGFYFSRPASRVSARSRGIVEECCFRSCDLALLETYCATPAKSE
notes: as for B2
B4: Naglu-(GGGGA)4GGGPS-IGF-II (SEQ ID NO: 569) (enzyme)
chain: B1 chain with S725A, S730A, S735A, S740A
notes: as for B2
B5: Naglu-XTEN-IGF-II (SEQ ID NO: 565) (enzyme)
chain: DEAREAAAVRALVARLLGPGPAADFSVSVERALAAKPGLDTYSLGGGGAARVRVRGSTGVAAAAGLHRYLRDFCGCHVAWSGSQLRLPRPLPAVPGELTEATPNRYRYYQNVCTQSYSFVWWDWARWEREIDWMALNGINLALAWSGQEAIWQRVYLALGLTQAEINEFFTGPAFLAWGRMGNLHTWDGPLPPSWHIKQLYLQHRVLDQMRSFGMTPVLPAFAGHVPEAVTRVFPQVNVTKMGSWGHFNCSYSCSFLLAPEDPIFPIIGSLFLRELIKEFGTDHIYGADTFNEMQPPSSEPSYLAAATTAVYEAMTAVDTEAVWLLQGWLFQHQPQFWGPAQIRAVLGAVPRGRLLVLDLFAESQPVYTRTASFQGQPFIWCMLHNFGGNHGLFGALEAVNGGPEAARLFPNSTMVGTGMAPEGISQNEVVYSLMAELGWRKDPVPDLAAWVTSFAARRYGVSHPDAGAAWRLLLRSVYNCSGEACRGHNRSPLVRRPSLQMNTSIWYNRSDVFEAWRLLLTSAPSLATSPAFRYDLLDLTRQAVQELVSLYYEEARSAYLSKELASLLRAGGVLAYELLPALDEVLASDSRFLLGSWLEQARAAAVSEAEADFYEQNSRYQLTLWGPEGNILDYANKQLAGLVANYYTPRWRLFLEALVDSVAQGIPFQQHQFDKNVFQLEQAFVLSKQRYPSQPRGDTVDLAKKIFLKYYPRWVAGSWGAPGGSPAGSPTSTEEGTSESATPESGPGTSTEPSEGSAPGSPAGSPTSTGPSGAPLCGGELVDTLQFVCGDRGFYFSRPASRVSARSRGIVEECCFRSCDLALLETYCATPAKSE
notes: as for B2

The binders below were run against T1, CI-MPR receptor on human MPS IIIB fibroblasts (human), P11717 (assay: cell-based or functional assay).
T1 sequence (P11717 41-2491): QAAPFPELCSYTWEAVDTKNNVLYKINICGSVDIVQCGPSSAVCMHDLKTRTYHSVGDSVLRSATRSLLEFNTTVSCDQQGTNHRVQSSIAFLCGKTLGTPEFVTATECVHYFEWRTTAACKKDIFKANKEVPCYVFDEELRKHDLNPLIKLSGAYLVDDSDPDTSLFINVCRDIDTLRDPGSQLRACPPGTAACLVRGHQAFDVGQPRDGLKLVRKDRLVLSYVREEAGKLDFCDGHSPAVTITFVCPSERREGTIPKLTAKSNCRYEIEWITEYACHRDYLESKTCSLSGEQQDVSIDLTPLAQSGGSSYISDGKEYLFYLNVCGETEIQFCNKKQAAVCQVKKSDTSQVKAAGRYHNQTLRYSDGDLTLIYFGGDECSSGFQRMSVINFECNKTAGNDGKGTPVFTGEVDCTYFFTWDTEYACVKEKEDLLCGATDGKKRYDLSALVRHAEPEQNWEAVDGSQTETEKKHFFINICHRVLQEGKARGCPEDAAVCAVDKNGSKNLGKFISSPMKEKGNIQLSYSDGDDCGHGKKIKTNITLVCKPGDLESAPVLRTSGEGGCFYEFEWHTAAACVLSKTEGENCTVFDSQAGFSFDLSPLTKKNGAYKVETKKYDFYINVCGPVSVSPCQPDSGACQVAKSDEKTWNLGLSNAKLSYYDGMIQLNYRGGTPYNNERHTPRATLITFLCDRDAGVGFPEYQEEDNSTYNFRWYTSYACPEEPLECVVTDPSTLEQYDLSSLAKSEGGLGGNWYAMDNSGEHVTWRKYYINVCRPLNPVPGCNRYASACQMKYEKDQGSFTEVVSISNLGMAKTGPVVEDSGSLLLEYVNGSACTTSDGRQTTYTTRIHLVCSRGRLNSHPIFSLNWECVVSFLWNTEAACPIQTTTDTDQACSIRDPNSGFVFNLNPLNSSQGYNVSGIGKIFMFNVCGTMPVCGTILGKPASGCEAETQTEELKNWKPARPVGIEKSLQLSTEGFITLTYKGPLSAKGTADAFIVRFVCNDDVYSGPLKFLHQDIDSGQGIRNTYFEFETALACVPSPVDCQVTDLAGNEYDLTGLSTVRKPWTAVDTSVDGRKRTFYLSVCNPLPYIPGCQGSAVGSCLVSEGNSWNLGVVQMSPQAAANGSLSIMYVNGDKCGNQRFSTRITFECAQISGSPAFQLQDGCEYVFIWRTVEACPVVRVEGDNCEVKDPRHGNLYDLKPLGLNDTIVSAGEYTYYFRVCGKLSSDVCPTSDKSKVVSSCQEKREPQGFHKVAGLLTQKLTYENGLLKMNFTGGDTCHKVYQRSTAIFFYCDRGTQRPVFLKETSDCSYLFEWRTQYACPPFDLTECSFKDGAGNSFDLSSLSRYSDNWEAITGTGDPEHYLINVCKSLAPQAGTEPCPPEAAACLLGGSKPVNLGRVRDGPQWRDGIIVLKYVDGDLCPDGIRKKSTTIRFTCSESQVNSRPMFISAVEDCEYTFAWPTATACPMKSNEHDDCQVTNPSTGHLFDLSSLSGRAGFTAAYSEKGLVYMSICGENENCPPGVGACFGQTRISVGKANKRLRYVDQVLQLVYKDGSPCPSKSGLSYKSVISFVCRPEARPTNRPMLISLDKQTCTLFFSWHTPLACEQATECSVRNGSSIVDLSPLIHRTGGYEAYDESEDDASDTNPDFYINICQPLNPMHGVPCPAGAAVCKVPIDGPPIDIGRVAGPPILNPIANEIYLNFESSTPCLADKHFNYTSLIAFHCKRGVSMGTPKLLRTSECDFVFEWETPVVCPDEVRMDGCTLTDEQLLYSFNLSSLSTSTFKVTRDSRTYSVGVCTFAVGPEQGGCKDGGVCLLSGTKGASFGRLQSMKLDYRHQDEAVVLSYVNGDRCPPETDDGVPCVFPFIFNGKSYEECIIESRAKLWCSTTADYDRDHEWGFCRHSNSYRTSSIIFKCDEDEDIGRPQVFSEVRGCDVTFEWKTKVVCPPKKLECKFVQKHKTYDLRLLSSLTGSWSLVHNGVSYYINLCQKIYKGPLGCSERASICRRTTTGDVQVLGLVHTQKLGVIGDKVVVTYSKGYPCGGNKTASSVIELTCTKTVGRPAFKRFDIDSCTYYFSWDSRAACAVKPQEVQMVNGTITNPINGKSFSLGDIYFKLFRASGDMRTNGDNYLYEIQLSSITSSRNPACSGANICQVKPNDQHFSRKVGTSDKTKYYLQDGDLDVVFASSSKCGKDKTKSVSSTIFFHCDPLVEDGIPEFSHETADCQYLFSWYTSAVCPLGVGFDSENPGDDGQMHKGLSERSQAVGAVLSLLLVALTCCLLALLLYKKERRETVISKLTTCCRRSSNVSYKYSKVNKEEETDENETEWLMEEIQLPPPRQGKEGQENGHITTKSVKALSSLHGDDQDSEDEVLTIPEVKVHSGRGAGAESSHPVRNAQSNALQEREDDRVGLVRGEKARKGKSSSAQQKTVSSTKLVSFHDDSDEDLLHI

Question: For B1, which Kuptake is on record?
Answer: The Kuptake was 7 to 9 nM.

Target: T1, CI-MPR receptor on human MPS IIIB …
Assay: cell-based or functional assay
Remark: another data set of the same source

Question: How did the Kuptake turn out when B2 was run?
Answer: Its Kuptake is 2.3 nM.

Question: For B3, which Kuptake is on record?
Answer: The Kuptake was 2.4 nM.

Question: B1 was tested. Which Kuptake did it give?
Answer: Its Kuptake is 5.4 nM.

Question: Which Kuptake does the source give for B4 here?
Answer: The Kuptake was 6.3 nM.

Question: B5 was tested. Which Kuptake did it give?
Answer: Its Kuptake is 3.7 nM.

What follows are binders tested against T2, fragment of the IGFIIR involved with IGF-II binding (domains 10-13, named protein 1288) (UniProt P11717 1367-1989) (assay: IGF2R competitive binding assay, displacement of 8 nM biotinylated IGF-II from plate-coated IGFIIR domains 10-13).
T2 construct: domain: domains 10-13; Coated on the plate at 0.5 ug/well; also called IGF2R
T2 sequence (P11717 1367-1989 limits assumed): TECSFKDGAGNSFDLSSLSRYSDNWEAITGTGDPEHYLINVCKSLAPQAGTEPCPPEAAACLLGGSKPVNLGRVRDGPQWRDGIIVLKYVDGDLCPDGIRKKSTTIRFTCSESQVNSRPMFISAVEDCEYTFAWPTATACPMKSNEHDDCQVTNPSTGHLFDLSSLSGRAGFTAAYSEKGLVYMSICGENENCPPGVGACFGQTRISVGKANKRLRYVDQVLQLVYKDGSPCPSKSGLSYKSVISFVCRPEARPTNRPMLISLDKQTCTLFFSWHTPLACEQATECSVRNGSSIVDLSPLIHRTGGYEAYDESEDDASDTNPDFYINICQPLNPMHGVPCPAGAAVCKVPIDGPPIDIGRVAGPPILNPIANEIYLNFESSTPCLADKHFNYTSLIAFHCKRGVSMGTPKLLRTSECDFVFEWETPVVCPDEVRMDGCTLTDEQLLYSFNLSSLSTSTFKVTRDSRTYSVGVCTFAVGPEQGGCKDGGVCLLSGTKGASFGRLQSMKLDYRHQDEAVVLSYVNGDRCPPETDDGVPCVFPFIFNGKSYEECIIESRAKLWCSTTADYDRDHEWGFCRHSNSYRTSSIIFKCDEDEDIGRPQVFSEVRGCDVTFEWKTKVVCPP
Experimental: To measure the ability of the Naglu fusion protein constructs to bind to the IGF-II receptor a competitive binding assay is carried out. A fragment of the IGFIIR involved with IGF-II binding (domains 10-13, named protein 1288) is coated onto 96-well plates. Biotinylated IGF-II is incubated with the receptor in the presence of increasing amounts of competitors: either control IGF-II (non-biotinylated), or fusion protein sample (containing an IGF-II-derived GILT epitope tag). Receptor-bound biotinylated IGF-II is detected with streptavidin conjugated to horseradish peroxidase (HRP) and a chemiluminescent HRP substrate. The ability of the fusion protein to inhibit binding of biotinylated IGF-II to the IGFIIR is calculated from inhibition curves and reported as an IC₅₀ value (concentration required to achieve 50% binding inhibition).
For the assay, IGFIIR is coated in a white Reacti-bind plate (Pierce, Cat#437111) at 0.5 μg/well in a volume of 100 μl (69.6 nM/per well) in coating buffer. The plate is sealed and incubated overnight at room temperature. The plate is then washed 3× with wash buffer, blocked with blocking buffer and then washed again 3× with wash buffer (300 μl/well).

Question: For B2, which IC50 is on record?
Answer: The IC50 was 0.25 nM.

Question: How did the IC50 turn out when B3 was run?
Answer: The IC50 was 0.23 nM.

Question: For B1, which IC50 is on record?
Answer: Its IC50 is 0.27 nM and 0.23 nM.

Question: For B4, which IC50 is on record?
Answer: The IC50 was 0.36 nM.

Question: B5 was tested. Which IC50 did it give?
Answer: The IC50 was 0.24 nM.
